{"source": "patent US20020082273A1", "about": "“Agents for use in the treatment of alzheimer's disease” (priority 1998, published 2002)", "test": "Aβ aggregation assay (soluble peptide after centrifugation)", "assay_type": "physicochemical, human", "procedure": "Aβ stock was diluted to 2.5 μM in 150 mM NaCl and 20 mM glycine (pH 3-4.5), MES (pH 5-6.2) or HEPES (pH 6.4-8.8), with or without metal ions, incubated (30 min., 37° C.), centrifuged (20 min., 10000 g). The amount of protein in the supernatant was determined by the Micro BCA protein assay as described above.\nThe resultant aggregated particles were sedimented by centrifugation to permit determination of soluble Aβ1-40 in the supernatant. To determine the centrifugation time required to completely sediment the aggregated particles generated under these conditions, Aβ1-40 was incubated for 30 min at 37° C. with no metal, Zn^2+ (100 μM), Cu^2+ (100 μM) and pH (5.5). Reaction mixtures were centrifuged at 10000 g for different times, or ultracentrifuged at 100000 g for 1 h. (FIG. 1). […] Aβ1-40 was incubated (30 min., 37° C.) with no metal, under acidic conditions (pH 5.5), Zn^2+ (100 μM) or Cu^2+ (100 μM), and centrifuged at 10000 g for different time intervals, or at 100,000 g (ultracentrifuged) for 1 h for comparison. All data points are means ±SD, n=3.\nSince the conformational state and solubility of Aβ is altered at different pH (Soto, C., et al., J. Neurochem. 63:1191-1198 (1994)), the effects of [H^+] on Zn^2+- and […] Aβ1-40 aggregation were studied. […] All data points are means ±SD, n=3. [H^+] alone precipitates Aβ1-40 (2.5 μM) as the solution is lowered below pH 7.4, and dramatically once the pH falls below 6.3 (FIG. 4A). At pH 5.0, 80% of the peptide is precipitated, but the peptide is not aggregated by acidic environments below pH 5, confirming and extending earlier reports on the effect of pH on Aβ solubility (Burdick, D., J. Biol. Chem. 267:546-554 (1992)). Zn^2+ (30 μM) induced a constant level (˜50%) of aggregation between pH 6.2-8.5, while below pH 6.0, aggregation could be explained solely by the effect of [H^+].", "note": "“And” between values parts separate entries of the source, which are not always exact repeats. Equal values may be shown once.", "data": [{"substance": "Aβ1-40: synthetic human Aβ peptide, residues 1-40", "values": [{"measurement": "available peptide aggregated by Cu^2+", "setting": "Cu^2+ (30 μM), pH 6.8", "value": "> 85% and 85%"}, {"measurement": "level of aggregation induced by Zn^2+", "setting": "Zn^2+ 30 μM, pH 6.2-8.5", "value": "~50", "unit": "%"}, {"measurement": "aggregation in the presence of Cu", "setting": "pH 7.1", "value": "approx. 30%"}]}]}
